This is an account of results in a protein production outcome set (Wang et al. 2014).
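Also: failed if final PepcDB status was selected cloned or expressed and not failed if soluble or beyond.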

This data set can be described thus: label from the status in PepcDB records.
Take “MDKALTNRVIILSFDCLSALDFPILQKLPHFQSLIKKGTVVEKVEPIYPSVTYPSHSTIVTGNYPNKHGVVSNTLLQPGRESPDWHWYRKSIKGTTLYDEAHKANLTTAALLWPVTGRANIDYNLPEIFPNRPWQNQVLVSLFSGSPLYQLDLNRRFGHIRNGLSQPELDDFVLASAVHTIQTKKPNVMFVHFTDLDTQRHYHGFESKETIAAIHRHDERLGQIIQALKDSDLYEESTIIALGDHSALSENKAIQLNVLFHQKGLISVNSKGNLVDWKVYCQSCDGSAYVYVKDKNDTDTIREVQLLLEELLQHKQNGIEFILHDEDAKECGADGNCLFMLEAREGYYFTENYTGDFIKEITEKDVTPSKKYTFGTHGYSPTKPNYETIFIAAGKGIKSGVTIPYMRLIDEGPTIARLLGLHLGETDGSIVEDLLQL”: the protein production result is “failed”. For “MAKVVKLEPISRETTVNTNDNLLSALLDSELHVLKECGGRGMCATCHVYIKEGMESLSPINKREQRTLEVITTANATSRLACQARVLGPGVVVELPSGMYVNAVEDIESLIGRRAEQDILHPLDGRVLVEAGKLITRTMITQLKDTQVQVGQYFANTSDALEHHHHHH” the value was “not failed”; for “MTKLERMEHPAYSQLRPVTPSASVVLCPNPGYSSLEGTNSWVIRAPEDPRSIVIDPGPEDEGHLNVLHSKAEEVGLILLTHRHYDHADGAQRFRQLTNAPVRAMDPSYCAGAEEIHDGEIITIDGVTPQIEVVATPGHTRDSVSYFIWSGVPHESTLEGIVSGDTIAGRHTTMISETDGDLGEYLNSLAILEERGKDIPLLPGHGPDGQDVSSFARKYIERRELRLNQIREVWETRGRDVSMKDLIDAIYDDVDPVLRGAAEQSTHVAIRYLQAQEASASN”, “failed”. With “MMPRLFLLAGLVSAPPLSLDPEPPSSIKMTYSGIVDAGSTGTRLNIYGFLDGEIRHQGLFTNTSRLASIEDDEEIKTSIRELFAHAEPFYSNIKKMPIGFYGTAGFRTLDKSRSDHVLDLIRSELKDYNLKEAEVINGVDEGKLALMALVLSNRGTDAGHRSLGIVDMGGGSTQISLLERDGKVISESIDLGITVLSLSDPDECKIEGDAEQESCASHIASKLAGVAIRPFLNSVDDLYLLSYFHDEFGKVIRSEKTSMREVKDEFYKRCNLLESHECRRLFYLISFIKSLGIEDTKAIHQIDTNNGINITWASGKGYELNKKYN”, the protein production result is on record as “failed”.

Take “MSKTERDKIKVEMEIDPHLSWQEKLAVEEQEKLSPRLVYEIIRRDGVEELSRPTSTLIFSGITAGLVMSFSFVFKAVIASYLPIDAVWTDLITNIGYTIGFLIAILGHLQLFTENTITTVIPLFKPFSLDKLKAVARLWSIVILTNIFGTALSSLFFLTTDLFSPEVDHALDEIAHHVASFTAWENFLKGVLSGLLIAALVWMLPSVNNKILLIFMITYLIGLGDFTHVVVGSVEVAYLVWQGQTSLSEYFFQFLVPTTLGNIIGGTGIFTLLIYGQVNQELEE”: the protein production entry is given as “failed”. As for “MEMESAAASTRFHQPHMERKMSAMACEIFNELRLEGKLCDVVIKVNGFEFSAHKNILCSCSSYFRALFTSGWNNTEKKVYNIPGISPDMMKLIIEYAYTRTVPITPDNVEKLLAAADQFNIMGIVRGCCEFLKSELCLDNCIGICKFTDYYYCPELRQKAYMFILHNFEEMVKVSAEFLELSVTELKDIIEKDELNVKQEDAVFEAILKWISHDPQNRKQHISILLPKVRLALMHAEYFMNNVKMNDYVKDSEECKPVIINALKAMYDLNMNGPSNSDFTNPLTRPRLPYAILFAIGGWSGGSPTNAIEAYDARADRWVNVTCEEESPRAYHGAAYLKGYVYIIGGFDSVDYFNSVKRFDPVKKTWHQVAPMHSRRCYVSVTVLGNFIYAMGGFDGYVRLNTAERYEPETNQWTLIAPMHEQRSDASATTLYGKVYICGGFNGNECLFTAEVYNTESNQWTVIAPMRSRRSGIGVIAYGEHVYAVGGFDGANRLRSAEAYSPVANTWRTIPTMFNPRSNFGIEVVDDLLFVVGGFNGFTTTFNVECYDEKTDEWYDAHGMSIYRSALSCCVVPGLANVEEYAARRDNFPGLALRDEVKYSASTSTLPVRASSFS”, the protein production entry is listed as “failed”. Regarding “MKHPDALRIALVGIGKIARDQHVPTIAARDDVQLVATVSRHGTVDGVPAYHTLEDAFAAQPQIEAVALCTPPVGRHALAQAALAAGRHVFLEKPPAATLAEIHDLQDVAQRAQRTLFTSWHSRCAAGVEPARAWLADKQLVRAHITWKEDIRHWHPGQDWILEPGGMGVFDPGINALSIATHLLPRSLALRDAELHTPENRQAPLYARLAFVDTAGLPVTAEFDFLQTGHQRWDIEVETTAGMLMLSEGGAKLRIEGQLQALPASSEYDGLYGRFVQLVRAGQSEVDIAPFVHVADAFMLGARQVTAPFAW”, the protein production result was “failed”. For “MVEHATSETDLDRIVRMFDGANLIVHGFDGVIQRWTSGCEQLYGWSASEAVGNVVHDLLDTQFPAGVEELRTEVRDKGFWTGQVGHRRKDGVRLAIVTRWTVLELGDPDTLIIQSNNDVTLMQQVGDELRERQAHLQSILATVPDAMIVIDDKGCIASFSTAAEKLFGYSADEAIGQNVSMLMPSPDREAHDGYLDSYIRTGRRRIIGYGRVVVGLRKHGTTFPMELSVGEAVAGGKRTFTGFVRDLTSRHRIEAELRQSQKMEAVGQLTGGLAHDFNNLLAVIIGNLEMLEARLAEPGQLSLLREAQSAADDGARLTSQLLAFGRRQALAPTVLDVGALLGEFSDLVQRTLGDSVELRTIIPGRRLSAMADKAQLQSALLNLSINARDAMPAGGRLTIEISGVEIDADYVGMYPAIRPGRYVLISVTDTGTGMTSEVMERAFEPFFTTKPTGSGTGLGLSMVYGFAKQSAGHLQLYSEPGEGTTVRLFLPRADGGRDSHPDEQQVKDAPSPGTETILVVEDDARVRRVTISRLQTLGYSVIEATNGIDALKELEAGHDVALLFSDVAMPGMNGDELARKVRERWPRVKILLTSGFSEPHAAEKEIEAGAGWLKKPYTASEMSTRLRLLLDARHGSDSA” the value was “failed”; for “MSDKQRVREQKHAWIYLFNLGFYILPMVLFPYQVWEIAVMVAALLVFIGLYYCCYSVPRQQMLWPILGMYIIACAVTPLNPGSIALFSYAGFFVGFAYNWRVALAAVAGIILTLATFHFGPGTSWDLFLPYGIVIVGTVSIFGRVERLRQQHAEEQERDAEEIERLATSVERERIARDLHDILGHTLSSIILKSDLAKAQLSKQRYDEASEQLVELSEIARESLSQVRQSVSGYKHGGLQLELRRLEQRLTDGGFSTRITGTPPIIDERRETSLVLAITELVTNIIRHSNGQQCLIHFDETANTYCIKVVDNGRCHDVSVGNGLSGVELRIQELGGSMSISTNKGCEVALFLPKLAEQQP”, “failed”.

With “MGHHHHHHSHDPFAHLPKSTFVLDEFKRKYSNEDTLSVALPYFWEHFDKDGWSLWYSEYRFPEELTQTFMSCNLITGMFQRLDKLRKNAFASVILFGTNNSSSISGVWVFRGQELAFPLSPDWQVDYESYTWRKLDPGSEETQTLVREYFSWEGAFQHVGKAFNQGKIFK”, the protein production entry is recorded as “not failed”. Turning to “MIVGRDGVGVVEHAEQGPRIAVAVVTMGNRPAEVDALLASVAKQDLPPARIVIVGNGCPLPEFARRLDLPGEVTGIEVDENLGCPGGRNVALAKLREFGDVDVVVELDDDGLLVDADVLRRVRDLYAADPRLGIVGFRIADENGETQRRHVPRVGKSDPLRGGPVTGFLGGGHALSMAMLARTGDWPAEFFFAHEETDLAWRATDAGWTILYAPELLLQHPKTSPARHAIYHRVTARNRVWLARRRLPLPLIPVHLGIWIAVTLVRTRSAGGLRAWFGGFMEGVRTSGGERRPMRWRTVWRLTRLGRPPVILEHHHHHH”, the protein production result was “failed”. Regarding “GEKIFVRVTSVGRNNCRVDCYGIEYRVPINEIDYGYIDKVDKYVQVGDVVPAIIKELDIDNNIVVVSIKEAKEDPYLGIVKSLNKG”, the protein production result was “failed”. Regarding “MLDVAIIGGGPAGLSAGLYATRGGLKNVVMFEKGMPGGQITSSSEIENYPGVAQVMDGISFMAPWSEQCMRFGLKHEMVGVEQILKNSDGSFTIKLEGGKTELAKAVIVCTGSAPKKAGFKGEDEFFGKGVSTCATCDGFFYKNKEVAVLGGGDTALEEALYLANICSKIYLIHRRDEFRAAPSTVEKVKKNEKIELITSASVDEVYGDKMGVAGVKVKLKDGSIRDLNVPGIFTFVGLNVRNEILKQDDSKFLCNMEEGGQVSVDLKMQTSVAGLFAAGDLRKDAPKQVICAAGDGAVAALSAMAYIESLH”, the protein production entry is on record as “not failed”. With “MHRHVVTKVLPYTPDQLFELVGDVDAYPKFVPWITGMRTWNGRVDGAVSTVDAEAQVGFSFLREKFATRVRRDKDARSIDVSLLYGPFKRLNNGWRFMPEGDATRVEFVIEFAFKSALLDAMLAANVDRAAGKLIACFEARAQQLHGALEHHHHHH”, the protein production entry was “not failed”.

Turning to “MGCGLRKLEDPDESSPGKIFSTLKRPQVETKTEFAYEYALLDFTLQASTNPDVIKINSVLDIVAKVEDYYLKGYVVGAIHPVIQPVGQRKHLPASHLYRAVLSRLKLSPKHSAAGGQRRARLVMEECPLTCEAQANDAAKELMDKINAAAKRGMKFVGLVSQCYLPSMHCNGASHDGVAESGLHVRQDSQDNCKGWNEGALGGHLSESGVEEEPQHESGQHQTERNSSPSYANPKRGEAPDGKLYMVFNAFEEDAASWAYQEGVLSMKVTRKGAVISALDANWLELTTFYYKQGFSLIDSFVCWETPKVAKLEAFQLSVSDKLPKGKQKYSFQSLSGIPASGLA”, the protein production entry is “not failed”. Turning to “MLPARLPFRLLSLFLRGSAPTAARHGLREPLLERRCAAASSFQHSSSLGRELPYDPVDTEGFGEGGDMQERFLFPEYILDPEPQPTREKQLQELQQQQEEEERQRQQRREERRQQNLRARSREHPVVGHPDPALPPSGVNCSGCGAELHCQDAGVPGYLPREKFLRTAEADGGLARTVCQRCWLLSHHRRALRLQVSREQYLELVSAALRRPGPSLVLYMVDLLDLPDALLPDLPALVGPKQLIVLGNKVDLLPQDAPGYRQRLRERLWEDCARAGLLLAPGHQGPQRPVKDEPQDGENPNPPNWSRTVVRDVRLISAKTGYGVEELISALQRSWRYRGDVYLVGATNAGKSTLFNTLLESDYCTAKGSEAIDRATISPWPGTTLNLLKFPICNPTPYRMFKRHQRLKKDSTQAEEDLSEQEQNQLNVLKKHGYVVGRVGRTFLYSEEQKDNIPFEFDADSLAFDMENDPVMGTHKSTKQVELTAQDVKDAHWFYDTPGITKENCILNLLTEKEVNIVLPTQSIVPRTFVLKPGMVLFLGAIGRIDFLQGNQSAWFTVVASNILPVHITSLDRADALYQKHAGHTLLQIPMGGKERMAGFPPLVAEDIMLKEGLGASEAVADIKFSSAGWVSVTPNFKDRLHLRGYTPEGTVLTVRPPLLPYIVNIKGQRIKKSVAYKTKKPPSLMYNVRKKKGKINV”, the protein production result is “failed”. “MRVTGVIIRIIRQFFRDKRSLAMMFGAPMLLLWLLSLVFTQKDYVPHIAVVDMPVQVVKVMKNQEASIYEYSKEKAMSELENQKVDAVIRLENGKMNIVLEGSDSSKNRAVLQILQKSTEKNDVSIMKPEVNYLHGSKDFTMFDGLGPVLIGFFTFFFVFILSGVSFVRERLSGTLERLLSTPIKRWEIVVGYIIGFGIFAFIQSIIIVSFSVYILDLYVAGSIWLTLLITCMLSLTALTLGTFLSAYANNEFQMIQFIPLVIVPQIFFSGLFPIESMNKWLQMLGKLFPLTYGADAMRQVMIRNQGFTEIALDLTVLLFFSVLFAVGNVFALKKHRKI”: the protein production entry is reported as “failed”.
